Measured values published in the supplement of paper PMC10724198.
± gives the standard deviation of the averaged measurements.

Columns and labels:
Saccharomyces cerevisiae [1] = experiment: protein stability index of tFT-peptide fusion (C-terminal peptide) (PSI (0-1 scale)); higher = more stable (slower turnover)
Method: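 MPS profiling in S. cerevisiae of the tFT-X12 degron library: putative degron peptides plus stable controls, 12 aa, fused to the C-terminus of a sfGFP-mCherry timer. Cells are FACS-sorted into 8 mCherry/sfGFP bins and deep-sequenced. PSI runs from 0 (unstable) to 1 (stable). Backgrounds are wild type, das1Δ and doa10Δ at 30 °C, and wild type, das1Δ, cdc34-1 and cdc53-1 at 37 °C; 2-3 technical replicates each.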

Saccharomyces cerevisiae [2] = experiment: as above; settings: genetic background: wild type; temperature: 30 C
[3] = genetic background: cdc34-1, temperature: 37 C
[4] = genetic background: cdc53-1, temperature: 37 C
[5] = genetic background: das1 deletion, temperature: 30 C
[6] = genetic background: das1 deletion, temperature: 37 C
[7] = genetic background: doa10 deletion, temperature: 30 C
[8] = genetic background: wild type, temperature: 30 C
[9] = genetic background: wild type, temperature: 37 C
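Also: PSI is a weighted mean of sequencing reads over stability bins, variants kept only with over 10 reads, mCherry proximal and sfGFP distal, peptide attached via GGGS linker.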

Sequence | protein stability index (Saccharomyces cerevisiae [1]; [3]) | protein stability index (Saccharomyces cerevisiae [1]; [4]) | protein stability index (Saccharomyces cerevisiae [1]; [5]) | protein stability index (Saccharomyces cerevisiae [1]; [6]) | protein stability index (Saccharomyces cerevisiae [1]; [7]) | protein stability index (Saccharomyces cerevisiae [1]; [8]) | protein stability index (Saccharomyces cerevisiae [1]; [9]) | protein stability index (Saccharomyces cerevisiae [2])
LQNCRVSVLLGW | 0.5443 ± 0.0023 | 0.616 ± 0.011 | 0.485 ± 0.019 | 0.6275 ± 0.0042 | 0.229 ± 0.0028 | 0.246 ± 0.036 | 0.4536 ± 0.0025 | 0.367 ± 0.033
EKHRRYAITKFI | 0.666 ± 0.019 | 0.694 ± 0.052 | 0.659 ± 0.027 | 0.732 ± 0.025 | 0.155 ± 0.0053 | 0.196 ± 0.058 | 0.407 ± 0.1 | 0.28 ± 0.043
NWAIEIRSVKIV | 0.642 ± 0.066 | 0.701 ± 0.022 | 0.619 ± 0.04 | 0.7084 ± 0.007 | 0.148 ± 0.0038 | 0.183 ± 0.021 | 0.303 ± 0.015 | 0.261 ± 0.025
FLVIILFFLYMR | 0.144 ± 0.043 | 0.0943 ± 0.015 | 0.176 ± 0.042 | 0.232 ± 0.023 | 0.398 ± 0.017 | 0.184 ± 0.041 | 0.185 ± 0.02 | 0.209 ± 0.011
CLHFLTWVRICS | 0.2 ± 0.041 | 0.4701 ± 0.0029 | 0.409 ± 0.019 | 0.526 ± 0.011 | 0.0895 ± 0.0063 | 0.0814 ± 0.025 | 0.0804 ± 0.03 | 0.285 ± 0.041
FFLVILSWWVGE | 0.182 ± 0.023 | 0.225 ± 0.056 | 0.197 ± 0.036 | 0.345 ± 0.028 | 0.185 ± 0.0019 | 0.205 ± 0.052 | 0.31 ± 0.017 | 0.242 ± 0.017
FLLVGLLIVGCG | 0.175 ± 0.0045 | 0.272 ± 0.0014 | 0.206 ± 0.027 | 0.349 ± 0.018 | 0.166 ± 0.025 | 0.206 ± 0.026 | 0.334 ± 0.0082 | 0.225 ± 0.12
VFFFNALFCFFC | 0.523 ± 0.039 | 0.51 ± 0.0085 | 0.535 ± 0.02 | 0.562 ± 0.0091 | 0.31138 ± 0.00022 | 0.291 ± 0.011 | 0.356 ± 0.0075 | 0.35 ± 0.0075
IPGGRPLLVEVR | 0.339 ± 0.02 | 0.384 ± 0.018 | 0.254 ± 0.044 | 0.518 ± 0.074 | 0.216 ± 0.0041 | 0.264 ± 0.033 | 0.439 ± 0.015 | 0.426 ± 0.035
SLCSSVQVWSVV | 0.7 ± 0.049 | 0.763 ± 0.024 | 0.612 ± 0.013 | 0.732 ± 0.011 | 0.5868 ± 0.0032 | 0.634 ± 0.037 | 0.716 ± 0.011 | 0.693 ± 0.027
CFCLFVFFISSC | 0.2112 ± 0.00091 | 0.414 ± 0.015 | 0.223 ± 0.033 | 0.459 ± 0.015 | 0.19 ± 0.019 | 0.233 ± 0.019 | 0.397 ± 0.015 | 0.362 ± 0.057
FCFLLLSWAFWV | 0.155 ± 0.026 | 0.205 ± 0.0084 | 0.171 ± 0.03 | 0.27279 ± 7.6e-05 | 0.0977 ± 0.011 | 0.103 ± 0.026 | 0.1757 ± 0.00047 | 0.159 ± 0.048
IFCRCNSTVLLI | 0.547 ± 0.035 | 0.633 ± 0.013 | 0.483 ± 0.021 | 0.5959 ± 0.0016 | 0.365 ± 0.055 | 0.37 ± 0.018 | 0.522 ± 0.021 | 0.451 ± 0.024
GRGLRVCWVWSG | 0.622 ± 0.054 | 0.7084 ± 0.0069 | 0.605 ± 0.019 | 0.7428 ± 0.0054 | 0.147 ± 0.013 | 0.18 ± 0.015 | 0.387 ± 0.013 | 0.286 ± 0.016
APLSPLLPPFLC | 0.693 ± 0.036 | 0.729 ± 0.012 | 0.661 ± 0.024 | 0.74816 ± 0.00015 | 0.3485 ± 0.0016 | 0.369 ± 0.05 | 0.595 ± 0.013 | 0.391 ± 0.088
LRLEFRTNWFLQ | 0.557 ± 0.042 | 0.7363 ± 0.0049 | 0.654 ± 0.015 | 0.752 ± 0.017 | 0.101 ± 0.016 | 0.132 ± 0.0047 | 0.402 ± 0.0072 | 0.2 ± 0.0067
HFASPPAPRSNL | 0.799 ± 0.051 | 0.819 ± 0.023 | 0.762 ± 0.03 | 0.81 ± 0.016 | 0.785 ± 0.032 | 0.785 ± 0.032 | 0.792 ± 0.014 | 0.765 ± 0.0023
ESCFGMAIFCVT | 0.526 ± 0.012 | 0.571 ± 0.011 | 0.37 ± 0.03 | 0.5841 ± 0.0045 | 0.301 ± 0.012 | 0.334 ± 0.03 | 0.525 ± 0.01 | 0.466 ± 0.024
CVFAYSPVALRC | 0.543 ± 0.025 | 0.534 ± 0.014 | 0.409 ± 0.024 | 0.556 ± 0.0084 | 0.412 ± 0.016 | 0.403 ± 0.018 | 0.532 ± 0.018 | 0.488 ± 0.01
CFVLVVCIPVMV | 0.2 ± 0.0041 | 0.247 ± 0.033 | 0.198 ± 0.023 | 0.3457 ± 0.0017 | 0.18 ± 0.009 | 0.207 ± 0.024 | 0.3279 ± 0.0019 | 0.31 ± 0.035
TLWWRQPFWGFG | 0.731 ± 0.038 | 0.802 ± 0.0045 | 0.659 ± 0.013 | 0.8 ± 0.021 | 0.673 ± 0.0095 | 0.702 ± 0.013 | 0.781 ± 0.017 | 0.722 ± 0.042
FELSVSVFQSVV | 0.318 ± 0.048 | 0.388 ± 0.0039 | 0.374 ± 0.023 | 0.3368 ± 0.002 | 0.409 ± 0.048 | 0.384 ± 0.044 | 0.318 ± 0.0051 | 0.338 ± 0.031
ERNERKYKIKIT | 0.699 ± 0.018 | 0.724 ± 0.035 | 0.609 ± 0.042 | 0.715 ± 0.026 | 0.179 ± 0.013 | 0.239 ± 0.037 | 0.461 ± 0.034 | 0.374 ± 0.041
ASLVGGVLLVVV | 0.495 ± 0.0051 | 0.5 ± 0.012 | 0.346 ± 0.032 | 0.535 ± 0.0056 | 0.313 ± 0.017 | 0.352 ± 0.022 | 0.502 ± 0.022 | 0.454 ± 0.011
PRPLLSIYLRHA | 0.597 ± 0.036 | 0.666 ± 0.014 | 0.599 ± 0.023 | 0.69 ± 0.019 | 0.29 ± 0.013 | 0.315 ± 0.017 | 0.553 ± 0.022 | 0.405 ± 0.018
VGVVVAIGLVRM | 0.508 ± 0.013 | 0.575 ± 0.032 | 0.381 ± 0.041 | 0.546 ± 0.0048 | 0.3423 ± 0.00054 | 0.377 ± 0.03 | 0.512 ± 0.019 | 0.4849 ± 0.0037
YPPLFLLMRGVL | 0.594 ± 0.021 | 0.694 ± 0.013 | 0.605 ± 0.018 | 0.712 ± 0.021 | 0.157 ± 0.011 | 0.175 ± 0.034 | 0.357 ± 0.016 | 0.258 ± 0.075
YFTNCYRSILTF | 0.4366 ± 0.0011 | 0.487 ± 0.013 | 0.367 ± 0.047 | 0.51517 ± 0.00037 | 0.3196 ± 0.00079 | 0.355 ± 0.031 | 0.48177 ± 0.00025 | 0.4436 ± 0.00083
RLPSSNVRYWVS | 0.637 ± 0.037 | 0.729 ± 0.012 | 0.64 ± 0.012 | 0.751 ± 0.032 | 0.1599 ± 0.001 | 0.183 ± 0.012 | 0.394 ± 0.037 | 0.235 ± 0.035
SGRFRAFVLRSM | 0.692 ± 0.012 | 0.746 ± 0.01 | 0.646 ± 0.029 | 0.7 ± 0.036 | 0.272 ± 0.019 | 0.298 ± 0.035 | 0.56 ± 0.032 | 0.476 ± 0.0099
